Source: patent publication US20170183383A1 (JIANG XIANXING, published 2017)
Non-standard residues stand in square brackets, D forms with d. Groups on a side chain read outwards from the residue. Primed or numbered codes have the meaning given here. No end group written: not given here. *: point of attachment. C18 diacid = O=C(O)CCCCCCCCCCCCCCCCC(=O)*; Palmitoyl = CCCCCCCCCCCCCCCC(=O)*; PEG2′ = not defined here; Aib = CC(C)(N)C(=O)O

B1: Compound 12 (peptide)
peptide: H[dS]QGTFTSDYSKYLD[Aib]K([PEG2′-PEG2′-C18 diacid])RAQDFVQWLMNTGGPSSGAPPPS-NH2
B2: Compound 1 (peptide)
peptide: H[dS]QGTFTSDYSKYLDSK([PEG2′-PEG2′-Glu-C18 diacid])AAHDFVEWLLRA-NH2
B3: Compound 21 (peptide)
peptide: H[Aib]QGTFTSDK([PEG2′-PEG2′-Glu-Palmitoyl])SKYLD[Aib]RRAQDFVQWLLDGGPSSGAPPPS-NH2
B4: Compound 17 (peptide)
peptide: H[dS]QGTFTSDYSK([PEG2′-PEG2′-Glu-Palmitoyl])KLD[Aib]RRAQDFVQWLMNTGGPSSGAPPPS-NH2
B5: Compound 22 (peptide)
peptide: H[Aib]QGTFTSDK([PEG2′-PEG2′-Glu-C18 diacid])SKYLD[Aib]RRAQDFVQWLLDGGPSSGAPPPS-NH2
B6: Compound 3 (peptide)
peptide: H[dS]QGTFTSDYSKYLDSK([PEG2′-PEG2′-Glu-C18 diacid])AAHDFVEWLLNGGPSSGAPPPS-NH2
B7: Compound 19 (peptide)
peptide: H[Aib]QGTFTSDK([PEG2′-PEG2′-Glu-Palmitoyl])SKYLDERRAQDFVQWLLDGGPSSGAPPPS-NH2
B8: Oxyntomodulin (ligand)
peptide: HSQGTFTSDYSKYLDSRRAQDFVQWLMNTKRNKNNIA
B9: Compound 23 (peptide)
peptide: H[dS]QGTFTSDYSKYLDEKAAK([PEG2′-PEG2′-Palmitoyl])EFIEWLLNGGPSSGAPPPS-NH2
B10: Compound 7 (peptide)
peptide: H[dS]QGTFTSDK([PEG2′-PEG2′-Glu-Palmitoyl])SKYLD[Aib]RRAQDFVQWLMNTGGPSSGAPPPS-NH2
B11: Compound 9 (peptide)
peptide: H[dS]QGTFTSDYSKYLDK([PEG2′-PEG2′-C18 diacid])RRAQDFVQWLMNTGGPSSGAPPPS-NH2
B12: Compound 10 (peptide)
peptide: H[dS]QGTFTSDYSKYLDK([PEG2′-PEG2′-Glu-Palmitoyl])RRAQDFVQWLMNTGGPSSGAPPPS-NH2
B13: Compound 14 (peptide)
peptide: H[dS]QGTFTSDYSKYLD[Aib]K([PEG2′-PEG2′-Glu-C18 diacid])RAQDFVQWLMNTGGPSSGAPPPS-NH2
B14: Compound 16 (peptide)
peptide: H[dS]QGTFTSDYSK([PEG2′-PEG2′-C18 diacid])KLD[Aib]RRAQDFVQWLMNTGGPSSGAPPPS-NH2
B15: Compound 8 (peptide)
peptide: H[dS]QGTFTSDK([PEG2′-PEG2′-Glu-C18 diacid])SKYLD[Aib]RRAQDFVQWLMNTGGPSSGAPPPS-NH2
B16: Compound 4 (peptide)
peptide: H[dS]QGTFTSDYSKYLDEKAAK([PEG2′-PEG2′-Glu-C18 diacid])EFIEWLLNGGPSSGAPPPS-NH2
B17: Compound 6 (peptide)
peptide: H[dS]QGTFTSDK([PEG2′-PEG2′-C18 diacid])SKYLD[Aib]RRAQDFVQWLMNTGGPSSGAPPPS-NH2
B18: Compound 2 (peptide)
peptide: H[dS]QGTFTSDYSKYLDEKAAK([PEG2′-PEG2′-Glu-C18 diacid])EFIEWLLRA-NH2
B19: Compound 13 (peptide)
peptide: H[dS]QGTFTSDYSKYLD[Aib]K([PEG2′-PEG2′-Glu-Palmitoyl])RAQDFVQWLMNTGGPSSGAPPPS-NH2
B20: Compound 18 (peptide)
peptide: H[dS]QGTFTSDYSK([PEG2′-PEG2′-Glu-C18 diacid])KLD[Aib]RRAQDFVQWLMNTGGPSSGAPPPS-NH2
B21: Compound 20 (peptide)
peptide: H[Aib]QGTFTSDK([PEG2′-PEG2′-Glu-C18 diacid])SKYLDERRAQDFVQWLLDGGPSSGAPPPS-NH2
B22: Compound 24 (peptide)
peptide: H[dS]QGTFTSDYSKYLDEKAAK([PEG2′-PEG2′-Glu-Palmitoyl])EFIEWLLNGGPSSGAPPPS-NH2
B23: Compound 11 (peptide)
peptide: H[dS]QGTFTSDYSKYLDK([PEG2′-PEG2′-Glu-C18 diacid])RRAQDFVQWLMNTGGPSSGAPPPS-NH2
B24: Compound 5 (peptide)
peptide: H[dS]QGTFTSDK([PEG2′-PEG2′-Palmitoyl])SKYLD[Aib]RRAQDFVQWLMNTGGPSSGAPPPS-NH2
B25: Compound 15 (peptide)
peptide: H[dS]QGTFTSDYSK([PEG2′-PEG2′-Palmitoyl])KLD[Aib]RRAQDFVQWLMNTGGPSSGAPPPS-NH2

Assays:
[1] = biological target: human glucagon receptor (human, UniProt P47871 26-477); experiment: cell-based or functional assay
[2] = biological target: human glucagon-like peptide-1 receptor (human, UniProt P43220 24-463); experiment: cell-based or functional assay
human glucagon-like peptide-1 receptor, sequence (P43220 24-463): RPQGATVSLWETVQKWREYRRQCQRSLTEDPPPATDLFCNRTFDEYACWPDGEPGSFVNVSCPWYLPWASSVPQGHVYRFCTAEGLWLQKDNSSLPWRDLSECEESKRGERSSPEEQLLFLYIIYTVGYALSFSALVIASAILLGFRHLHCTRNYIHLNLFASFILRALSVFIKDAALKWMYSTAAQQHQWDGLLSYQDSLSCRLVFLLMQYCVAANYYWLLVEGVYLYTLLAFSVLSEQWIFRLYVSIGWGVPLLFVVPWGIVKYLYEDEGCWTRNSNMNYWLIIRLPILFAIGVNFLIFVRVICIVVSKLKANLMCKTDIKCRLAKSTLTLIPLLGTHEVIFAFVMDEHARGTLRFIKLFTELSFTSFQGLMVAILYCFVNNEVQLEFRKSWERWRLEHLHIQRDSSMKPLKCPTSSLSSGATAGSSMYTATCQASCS

Row | Binder | GCGR (EC50, nM), CRE-luciferase in HEK-293 cells [1] | GLP-1R (EC50, nM), CRE-luciferase in HEK-293 cells [2]
1 | B1 | 0.15 nM | 0.32 nM
2 | B2 | 0.54 nM | 0.23 nM
3 | B3 | 0.66 nM | 0.15 nM
4 | B4 | 0.58 nM | 0.68 nM
5 | B5 | 0.32 nM | 0.06 nM
6 | B6 | 1.02 nM | 0.59 nM
7 | B7 | 0.56 nM | 0.14 nM
8 | B8 | 6.2 nM | 
9 | B9 | 0.43 nM | 0.13 nM
10 | B10 | 0.34 nM | 
11 | B11 | 0.18 nM | 0.52 nM
12 | B12 | 0.11 nM | 0.35 nM
13 | B13 | 0.19 nM | 0.4 nM
14 | B14 | 0.2 nM | 0.6 nM
15 | B15 | 0.18 nM | 0.2 nM
16 | B16 | 0.39 nM | 0.13 nM
17 | B17 | 0.33 nM | 0.1 nM
18 | B18 | 2.8 nM | 0.39 nM
19 | B19 | 0.16 nM | 0.44 nM
20 | B20 | 0.18 nM | 0.76 nM
21 | B21 | 0.48 nM | 0.09 nM
22 | B22 | 0.58 nM | 0.16 nM
23 | B23 | 0.18 nM | 0.15 nM
24 | B24 | 0.43 nM | 0.06 nM
25 | B25 | 0.6 nM | 1.5 nM
